Laboratory results reported in patent US20160263235A1 (ANGIOCHEM, published 2016).
Square brackets hold non-standard residues; d marks the D form.

Experiments:
[1] = target: T1, NT receptor NTSR1 (high affinity NTSR1 receptor) on HT29 cells (human (HT29 is stated to be a human …, UniProt P30989 1-418)); test: competitive displacement of [3H]-NT from HT29 cells expressing NTSR1
T1 construct: whole, on cells; Endogenous receptor on HT29 cells

[2] = target: T1, NT receptor NTSR1 (high affinity NTSR1 …); test: as above; remark: listed apart in the source

T1 sequence (P30989 whole entry): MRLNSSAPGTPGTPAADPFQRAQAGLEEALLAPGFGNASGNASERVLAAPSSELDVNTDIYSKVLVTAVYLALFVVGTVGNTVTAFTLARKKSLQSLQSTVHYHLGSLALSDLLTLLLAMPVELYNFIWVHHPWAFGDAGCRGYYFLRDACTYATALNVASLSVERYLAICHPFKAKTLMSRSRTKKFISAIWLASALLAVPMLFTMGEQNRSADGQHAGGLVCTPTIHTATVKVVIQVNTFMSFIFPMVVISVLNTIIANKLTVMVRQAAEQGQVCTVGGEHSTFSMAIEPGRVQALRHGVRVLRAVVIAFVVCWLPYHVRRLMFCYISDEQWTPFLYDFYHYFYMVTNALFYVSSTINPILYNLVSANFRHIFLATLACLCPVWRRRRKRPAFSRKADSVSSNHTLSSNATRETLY

IC50 [1]: 5.39 µM
fold weaker binding than native NT [2]: > 1000 fold
B1: Ac-Lys-[D-Tyr^11]NT(8-13) (peptide)
peptide: Ac-KRRP[dY]IL-OH
SMILES: CC[C@H](C)[C@H](NC(=O)[C@@H](Cc1ccc(O)cc1)NC(=O)[C@@H]1CCCN1C(=O)[C@H](CCCNC(=N)N)NC(=O)[C@H](CCCNC(=N)N)NC(=O)[C@H](CCCCN)NC(C)=O)C(=O)N[C@@H](CC(C)C)C(=O)O
notes: also called AcLysNT(8-13)D-tyr11; AcLysNT(8-13)(D-Tyr11)
